Test results: doi:10.1101/2021.12.10.472131 (bioRxiv, 2021)

Biological target: T1, Par-3 PDZ1-APM (residues 309-987) (UniProt O96782 309-987)
T1 sequence (looked up): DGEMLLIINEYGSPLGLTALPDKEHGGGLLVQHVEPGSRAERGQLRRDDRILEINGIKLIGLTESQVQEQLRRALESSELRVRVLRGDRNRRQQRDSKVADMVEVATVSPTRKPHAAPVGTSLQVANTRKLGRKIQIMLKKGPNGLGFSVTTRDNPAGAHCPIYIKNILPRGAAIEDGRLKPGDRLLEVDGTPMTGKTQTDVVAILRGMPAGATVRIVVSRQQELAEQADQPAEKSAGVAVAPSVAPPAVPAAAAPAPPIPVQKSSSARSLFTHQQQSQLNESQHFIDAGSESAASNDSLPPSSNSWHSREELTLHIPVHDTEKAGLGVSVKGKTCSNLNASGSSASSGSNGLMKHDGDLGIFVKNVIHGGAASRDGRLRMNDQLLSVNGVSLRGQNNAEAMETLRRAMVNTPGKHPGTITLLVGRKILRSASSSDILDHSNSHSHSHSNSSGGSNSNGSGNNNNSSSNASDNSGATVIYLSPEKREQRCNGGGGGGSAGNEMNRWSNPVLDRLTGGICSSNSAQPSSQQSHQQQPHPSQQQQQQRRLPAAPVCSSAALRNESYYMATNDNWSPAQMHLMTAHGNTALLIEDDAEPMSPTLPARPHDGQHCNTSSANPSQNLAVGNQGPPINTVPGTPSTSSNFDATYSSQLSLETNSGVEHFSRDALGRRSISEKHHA
Test: supernatant depletion assay

B1: his aPKC kinase domain-PBM (residues 259-606) (domain or fragment, UniProt A1Z9X0 259-606, looked up)
chain: YSLNDFELIRVIGRGSYAKVLMVELRRTRRIYAMKVIKKALVTDDEDIDWVQTEKHVFETASNHPFLVGLHSCFQTPSRLFFVIEFVRGGDLMYHMQRQRRLPEEHARFYAAEISLALNFLHEKGIIYRDLKLDNVLLDHEGHIKLTDYGMCKEGIRPGDTTSTFCGTPNYIAPEILRGEDYGFSVDWWALGVLLYEMLAGRSPFDLAGASENPDQNTEDYLFQVILEKTIRIPRSLSVRAASVLKGFLNKNPADRLGCHRESAFMDIVSHPFFKNMDWELLERKQVTPPFKPRLDSDRDLANFPPEFTGEAVQLTPDDDHVIDNIDQSEFEGFEYVNPLLMSLEDCV
B1: binds.
